Values quoted from earlier work in paper PMC7390727.
pKd: −log10 of the molar value. Where two headings read alike, the source gives them in different places.

Columns and labels:
[1] = biological target: chemoreceptor C-terminal pentapeptide (Salmonella typhimurium)
[2] = biological target: chemoreceptor C-terminal pentapeptide (Salmonella typhimurium); remark: listed apart in the source

Row | Substance | pKd [1] | pKd [2]
1 | CheB (from UniProt P04042) | 3.80 | –
2 | CheR (from UniProt P07801) | – | 5.70
